What was measured:
[1] = target: Myl12a, biotinylated (murine) (UniProt Q6ZWQ9); experiment: BLI
Myl12a, biotinylated [2] = target: Myl12a, biotinylated (UniProt Q6ZWQ9); experiment: BLI
[3] = target: T1, SteC FL (full-length SteC) (Salmonella enterica, UniProt D0ZIB5); experiment: Phos-tag gel kinase assay; assay type: biochemical; conditions: phosphate donor, 100 μM; acceptor murine Myl12a; 10 mM MgCl2/MnCl2, pH 7.5, 30 °C
T1 construct: full-length (457 aa), expressed in E. coli BL21(DE3) from pGL01, Ni-NTA, His-tag removed by PPase, Superdex 200; dimeric catalysis inferred from the kinase domain structure
T1 sequence (D0ZIB5 whole entry, the tested form may be a part): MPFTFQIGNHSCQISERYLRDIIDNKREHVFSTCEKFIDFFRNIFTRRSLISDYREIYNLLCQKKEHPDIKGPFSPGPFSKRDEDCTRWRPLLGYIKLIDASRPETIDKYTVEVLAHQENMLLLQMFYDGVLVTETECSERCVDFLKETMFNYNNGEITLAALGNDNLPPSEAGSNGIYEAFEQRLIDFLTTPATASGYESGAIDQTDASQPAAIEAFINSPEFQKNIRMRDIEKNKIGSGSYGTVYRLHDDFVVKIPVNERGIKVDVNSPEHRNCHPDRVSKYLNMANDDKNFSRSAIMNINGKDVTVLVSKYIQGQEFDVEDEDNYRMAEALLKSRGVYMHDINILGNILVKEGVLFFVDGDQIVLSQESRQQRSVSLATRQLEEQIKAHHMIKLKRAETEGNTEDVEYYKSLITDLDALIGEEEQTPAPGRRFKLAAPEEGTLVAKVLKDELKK

[4] = system: Nc1nc2c(ncn2[C@@H]2O[C@H](COP(=O)(O)OP(=O)(O)OP(=O)(O)O)[C@@H](O)[C@H]2O)c(=O)[nH]1; experiment: purified protein; conditions: phosphate donor, acceptor murine Myl12a, 10 mM MnCl2, 25 mM Tris-HCl pH 7.5, 1 mM DTT, 30 °C, 30 min
[5] = system: O=c1ccn([C@@H]2O[C@H](COP(=O)(O)OP(=O)(O)OP(=O)(O)O)[C@@H](O)[C@H]2O)c(=O)[nH]1; experiment: purified protein; conditions: phosphate donor, acceptor murine Myl12a, 10 mM MnCl2, 25 mM Tris-HCl pH 7.5, 1 mM DTT, 30 °C, 30 min
Myl12a, biotinylated [6] = target: T2, Myl12a, biotinylated (murine, UniProt Q6ZWQ9 1-172, biotin (EZ-Link biotin, MCR = 1:1)); experiment: BLI
T2 chain: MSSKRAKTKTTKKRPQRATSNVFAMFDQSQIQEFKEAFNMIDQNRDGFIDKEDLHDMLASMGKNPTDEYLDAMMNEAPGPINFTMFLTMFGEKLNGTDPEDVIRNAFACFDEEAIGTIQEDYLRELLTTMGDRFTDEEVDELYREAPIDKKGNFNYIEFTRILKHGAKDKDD

Molecule: SteC-C (194 aa–457 aa) (domain or fragment)
- Kd [1]: 23.3 µM

Molecule: Native SteC mut4
- Kd (Myl12a, biotinylated [2]): 1110 nM

Molecule: Native SteC mut1
- Kd (Myl12a, biotinylated [2]): 1090 nM

Molecule: SteC full-length protein (natural protein)
- Kd [1]: 1.34 µM

Molecule: Nc1ccn([C@@H]2O[C@H](COP(=O)(O)OP(=O)(O)OP(=O)(O)O)[C@@H](O)[C@H]2O)c(=O)n1 [CTP]
- Phos-tag gel kinase assay [3]: SteC can employ all four nucleotides (ATP, CTP, UTP, and GTP) for phosphorylation

Molecule: SteC FL (full-length SteC) (Salmonella enterica subsp. enterica serovar Typhimurium str. 14028S)
- Km [4]: 5.84 µM
- Km [5]: 5.53 µM

B1: SteC 194 aa–364 aa (domain or fragment)
chain: ATASGYESGAIDQTDASQPAAIEAFINSPEFQKNIRMRDIEKNKIGSGSYGTVYRLHDDFVVKIPVNERGIKVDVNSPEHRNCHPDRVSKYLNMANDDKNFSRSAIMNINGKDVTVLVSKYIQGQEFDVEDEDNYRMAEALLKSRGVYMHDINILGNILVKEGVLFFVDGD
- Kd (Myl12a, biotinylated [6]): 8.83 µM

B2: SteC 168 aa–364 aa fragment (domain or fragment)
chain: LPPSEAGSNGIYEAFEQRLIDFLTTPATASGYESGAIDQTDASQPAAIEAFINSPEFQKNIRMRDIEKNKIGSGSYGTVYRLHDDFVVKIPVNERGIKVDVNSPEHRNCHPDRVSKYLNMANDDKNFSRSAIMNINGKDVTVLVSKYIQGQEFDVEDEDNYRMAEALLKSRGVYMHDINILGNILVKEGVLFFVDGD
- Kd (Myl12a, biotinylated [6]): 0.71 µM

— PMC11021425, “Salmonella manipulates macrophage migration via SteC-mediated myosin light chain activation to penetrate the gut-vascular barrier” (The EMBO Journal, 2024)
